Biological target: mucins in cell-free regions of human cervicovaginal mucus (CVM) (human (endogenous in cervicovaginal mucus))
Experiment: FRAP (fluorescence recovery after photobleaching); labeled exogenous IgG (0.1–1.5 mg/mL final) stirred into 10 μL of fresh pH-neutralized (pH 6.8–7.1) human CVM, 1 hr at 37°C; about 10 μm x 10 μm ROIs in cell-free regions; recovery half-time against PBS (Dcvm/Dpbs); 7–9 repeats

Dcvm/Dpbs: 0.8
Substance: Human intravenous immunoglobulin (IVIG), FITC-labeled (antibody)
